Assay results from publication PMC3211009, “A Novel Cold-Adapted Lipase from Sorangium cellulosum Strain So0157-2: Gene Cloning, Expression, and Enzymatic Characterization” (International Journal of Molecular Sciences, 2011).

What was measured:
Assay in all cases: purified protein
Assay type in all cases: biochemical, Sorangium cellulosum
Details in all cases: 50 mM Tris-HCl pH 8.0, 30 °C
purified protein [1] = substrate: CCCC(=O)Oc1ccc([N+](=O)[O-])cc1
purified protein [2] = substrate: CCCCCCCCCCCC(=O)Oc1ccc([N+](=O)[O-])cc1
purified protein [3] = substrate: CCCCCCCC(=O)Oc1ccc([N+](=O)[O-])cc1
purified protein [4] = substrate: CCCCCCCCCC(=O)Oc1ccc([N+](=O)[O-])cc1
purified protein [5] = substrate: CC(=O)Oc1ccc([N+](=O)[O-])cc1

B1: r-LipA (Sorangium cellulosum) (protein)
chain: MPADTFTFQADDGRELFVYRWLPDDGARGIFHIAHGMSEHAGRYARLAHALSAAGWAVYANDHRGHGRTARERGELGFFASQGGFQRVVRDLAALIAREQEAHPGLPVVLFGHSMGSSLVQEYLIERGGSIQGAVLSGSSGKPSPLVDAGRLVARAERRRLGERGKSQLLQSMSFDSFNKLFAPARTPFDWLSRDRAEVDGYIADPCCGFPATVSLWIDLLDAMVDIARPERQARIPKDLPVYVFSGSRDPVGGPLRSVTQMIEAYRAAGLRRVTPRIYPGGRHEMLNEINREEVVRDLLAWLDAEVKTEAAPARPARPSAGAAAG
notes: pET-22b(+) NdeI/HindIII, His-tag (C-terminal by vector and stop-less reverse primer), E. coli BL21(DE3), Ni-NTA; tryptic peptides GELGFFASQGGFQR, SVTQMIEAYR; GHSMG at 112-116, Ser114/Asp250/His284
B1 gave a Km (purified protein [1]) of 366 ± 211 µM, a kcat (purified protein [1]) of 13.6 ± 0.735 s⁻¹ and a kcat/Km (purified protein [1]) of 37170 ± 128 M⁻¹ s⁻¹. It also gave a Km (purified protein [2]) of 1946 ± 59 µM, a kcat (purified protein [2]) of 1.21 ± 0.032 s⁻¹ and a kcat/Km (purified protein [2]) of 619 ± 2 M⁻¹ s⁻¹. It also gave a Km (purified protein [3]) of 704 ± 26 µM, a kcat (purified protein [3]) of 3.29 ± 0.114 s⁻¹ and a kcat/Km (purified protein [3]) of 4677 ± 13 M⁻¹ s⁻¹. For the same protein, the Km (purified protein [4]) was 1664 ± 47 µM, the kcat (purified protein [4]) was 1.56 ± 0.036 s⁻¹ and the kcat/Km (purified protein [4]) was 940 ± 5 M⁻¹ s⁻¹. For the same protein, the Km (purified protein [5]) was 174 ± 6 µM, the kcat (purified protein [5]) was 29.2 ± 0.977 s⁻¹ and the kcat/Km (purified protein [5]) was 168000 ± 2100 M⁻¹ s⁻¹.
